In the Human Domainome abundance scans (Beltran et al. 2025):
± gives the uncertainty stated by the source.

B1: Homeobox protein cut-like 2, residues 895 to 963; numbered along this chain, O14529 (parent)
chain: EVDTLELTRQVKEKLAKNGICQRIFGEKVLGLSQGSVSDMLSRPKPWSKLTQKGREPFIRMQLWLSDQL

Variants of: B1
Assay: abundance fitness (aPCA) (normalised: wild type 0, dead -1); higher = more abundant; growth selection in yeast, the domain comes from the species named
Conditions: Homo sapiens

Going from L15V to L15M, the abundance fitness rises from -0.154 ± 0.027 to 0.053 ± 0.034.

First: L15F
Second: L15A
The abundance fitness of the first is lower: -0.157 ± 0.043 for the first, 0.038 ± 0.14 for the second.

First: L15K
Second: L15Y
The abundance fitness of the first is higher: 0.029 ± 0.038 for the first, -0.124 ± 0.052 for the second.

F58R and F58C are within error of each other in abundance fitness: -0.906 ± 0.064 for the first, -0.845 ± 0.12 for the second.

First: F58Y
Second: F58G
The abundance fitness of the first is higher: 0.186 ± 0.19 for the first, -0.888 ± 0.099 for the second.

Going from F58E to F58S, the abundance fitness falls from -0.763 ± 0.14 to -1.11 ± 0.062.

F58Q and F58T are within error of each other in abundance fitness: -1.01 ± 0.1 for the first, -1.11 ± 0.096 for the second.

Going from K12A to K12D, the abundance fitness rises from -0.372 ± 0.058 to -0.025 ± 0.11.

First: K12V
Second: E6W
The abundance fitness of the first is lower: -0.366 ± 0.036 for the first, -0.173 ± 0.029 for the second.

G19H and G19F are within error of each other in abundance fitness: -0.374 ± 0.33 for the first, -0.226 ± 0.041 for the second.

Compared with G19Q, G19I is lower in abundance fitness: -0.242 ± 0.07 for the first, -0.434 ± 0.057 for the second.

Compared with G19R, G19Y is lower in abundance fitness: 0.032 ± 0.065 for the first, -0.122 ± 0.057 for the second.

S42T and S42R are within error of each other in abundance fitness: -0.169 ± 0.089 for the first, -0.054 ± 0.1 for the second.

S42Y and S42K are within error of each other in abundance fitness: -0.075 ± 0.04 for the first, 0.009 ± 0.044 for the second.

Compared with S42N, W47G is lower in abundance fitness: -0.095 ± 0.057 for the first, -1.01 ± 0.14 for the second.

First: W47L
Second: W47Q
The abundance fitness of the first is higher: -0.488 ± 0.028 for the first, -0.84 ± 0.058 for the second.

First: W47H
Second: W47F
The abundance fitness of the first is lower: -0.894 ± 0.063 for the first, -0.338 ± 0.041 for the second.

V11Y and V11T are within error of each other in abundance fitness: -0.326 ± 0.15 for the first, -0.171 ± 0.049 for the second.

V11E and V11A are within error of each other in abundance fitness: -0.192 ± 0.039 for the first, -0.224 ± 0.041 for the second.

Going from V11N to V11C, the abundance fitness falls from -0.153 ± 0.083 to -0.465 ± 0.083.

P57C and P57W are within error of each other in abundance fitness: -0.139 ± 0.14 for the first, -0.102 ± 0.088 for the second.

First: P57L
Second: P57S
The abundance fitness of the first is higher: 0.087 ± 0.029 for the first, -0.034 ± 0.033 for the second.

First: P57A
Second: L41T
The abundance fitness of the first is higher: -0.016 ± 0.063 for the first, -0.505 ± 0.035 for the second.

Compared with L41Y, L41M is higher in abundance fitness: -0.418 ± 0.053 for the first, -0.214 ± 0.032 for the second.

Going from L41H to V29M, the abundance fitness rises from -0.37 ± 0.05 to -0.104 ± 0.034.

Going from V29F to V29E, the abundance fitness falls from -0.174 ± 0.048 to -0.535 ± 0.055.

Going from V29D to V29G, the abundance fitness rises from -0.476 ± 0.07 to -0.173 ± 0.039.

First: V37K
Second: V37T
The abundance fitness of the first is lower: -0.232 ± 0.069 for the first, 0 ± 0.043 for the second.

V37Y and V37R are within error of each other in abundance fitness: -0.257 ± 0.06 for the first, -0.223 ± 0.032 for the second.

Going from V37I to R43D, the abundance fitness rises from -0.156 ± 0.046 to 0.013 ± 0.08.

R43F and R43K are within error of each other in abundance fitness: -0.101 ± 0.061 for the first, -0.047 ± 0.07 for the second.

R43H and R43S are within error of each other in abundance fitness: 0.004 ± 0.048 for the first, 0.064 ± 0.029 for the second.

First: E1K
Second: E1V
The abundance fitness of the first is higher: -0.026 ± 0.067 for the first, -0.213 ± 0.038 for the second.

E1W and G31N are within error of each other in abundance fitness: -0.239 ± 0.088 for the first, -0.121 ± 0.081 for the second.

Going from G31A to G31S, the abundance fitness rises from -0.226 ± 0.042 to -0.134 ± 0.032.

Going from G31Y to G31Q, the abundance fitness rises from -0.449 ± 0.062 to -0.213 ± 0.064.

Going from G31I to G31K, the abundance fitness rises from -0.712 ± 0.068 to -0.129 ± 0.076.

First: G31E
Second: Q52M
The abundance fitness of the first is lower: -0.48 ± 0.1 for the first, -0.106 ± 0.044 for the second.

Q52D and Q52N are within error of each other in abundance fitness: 0.017 ± 0.12 for the first, -0.215 ± 0.12 for the second.

Q52E and Q52L are within error of each other in abundance fitness: -0.016 ± 0.067 for the first, -0.025 ± 0.032 for the second.

Q52K and Q52P are within error of each other in abundance fitness: 0.094 ± 0.084 for the first, 0.01 ± 0.029 for the second.

Q52W and P44A are within error of each other in abundance fitness: -0.187 ± 0.052 for the first, -0.103 ± 0.038 for the second.

P44K and P44W are within error of each other in abundance fitness: -0.134 ± 0.075 for the first, -0.103 ± 0.058 for the second.

First: K28L
Second: K28N
The abundance fitness of the first is lower: -0.335 ± 0.027 for the first, -0.242 ± 0.049 for the second.

Going from K28M to K28W, the abundance fitness falls from -0.155 ± 0.032 to -0.263 ± 0.037.

K28G and K28V are the same in abundance fitness: -0.184 ± 0.035 for the first, -0.184 ± 0.035 for the second.

K28F and K28Y are within error of each other in abundance fitness: -0.327 ± 0.038 for the first, -0.296 ± 0.047 for the second.

K28T and G26S are within error of each other in abundance fitness: -0.078 ± 0.033 for the first, -0.035 ± 0.033 for the second.

Compared with G26R, G26C is higher in abundance fitness: -0.295 ± 0.042 for the first, -0.02 ± 0.032 for the second.

First: G26M
Second: S38T
The abundance fitness of the first is lower: -0.153 ± 0.039 for the first, 0.006 ± 0.026 for the second.

Going from S36Q to S36L, the abundance fitness falls from 0.15 ± 0.032 to 0.021 ± 0.025.

First: S36T
Second: S36D
The abundance fitness of the first is lower: 0.002 ± 0.028 for the first, 0.134 ± 0.051 for the second.

Q34H and Q34S are within error of each other in abundance fitness: 0.027 ± 0.038 for the first, -0.028 ± 0.031 for the second.

First: Q34A
Second: Q62G
The abundance fitness of the first is higher: 0.088 ± 0.081 for the first, -0.06 ± 0.039 for the second.

First: Q62C
Second: Q62K
The abundance fitness of the first is lower: -0.263 ± 0.075 for the first, 0.17 ± 0.073 for the second.

First: Q62Y
Second: Q62W
The abundance fitness of the first is lower: -0.278 ± 0.17 for the first, 0.005 ± 0.046 for the second.

Q62T and K53V are within error of each other in abundance fitness: -0.308 ± 0.038 for the first, -0.259 ± 0.082 for the second.

K53D and K53P are within error of each other in abundance fitness: -0.3 ± 0.12 for the first, -0.282 ± 0.034 for the second.

N18Y and N18F are within error of each other in abundance fitness: -0.128 ± 0.057 for the first, -0.065 ± 0.045 for the second.

N18K and N18H are within error of each other in abundance fitness: 0.04 ± 0.037 for the first, 0.001 ± 0.049 for the second.

N18I and N18W are within error of each other in abundance fitness: -0.101 ± 0.049 for the first, -0.102 ± 0.041 for the second.

Going from N18E to L32S, the abundance fitness falls from 0.045 ± 0.063 to -0.203 ± 0.04.

S48A and S48H are within error of each other in abundance fitness: -0.064 ± 0.045 for the first, -0.011 ± 0.04 for the second.

S48V and S48M are within error of each other in abundance fitness: -0.259 ± 0.035 for the first, -0.323 ± 0.048 for the second.

S48Q and S48E are within error of each other in abundance fitness: -0.085 ± 0.038 for the first, -0.103 ± 0.055 for the second.

Going from S48C to I20K, the abundance fitness falls from -0.003 ± 0.075 to -0.32 ± 0.051.

First: I20C
Second: I20A
The abundance fitness of the first is higher: -0.269 ± 0.065 for the first, -0.535 ± 0.052 for the second.

Compared with I20W, G54P is lower in abundance fitness: -0.11 ± 0.077 for the first, -0.581 ± 0.041 for the second.

G54A and G54D are within error of each other in abundance fitness: 0.084 ± 0.046 for the first, 0.201 ± 0.24 for the second.

L69Y and L69C are within error of each other in abundance fitness: -0.096 ± 0.098 for the first, -0.054 ± 0.059 for the second.

L69R and L69M are within error of each other in abundance fitness: -0.08 ± 0.04 for the first, -0.007 ± 0.049 for the second.

First: L69P
Second: F25E
The abundance fitness of the first is higher: -0.163 ± 0.057 for the first, -0.904 ± 0.054 for the second.

F25T and F25M are within error of each other in abundance fitness: -0.449 ± 0.063 for the first, -0.462 ± 0.046 for the second.

F25C and F25I are within error of each other in abundance fitness: -0.707 ± 0.067 for the first, -0.711 ± 0.14 for the second.

K17Y and K17I are within error of each other in abundance fitness: -0.276 ± 0.076 for the first, -0.292 ± 0.066 for the second.

K17C and K17A are within error of each other in abundance fitness: -0.2 ± 0.083 for the first, -0.086 ± 0.046 for the second.

Going from K17W to K17L, the abundance fitness rises from -0.269 ± 0.053 to -0.087 ± 0.029.

Compared with M61G, M61V is higher in abundance fitness: -0.735 ± 0.055 for the first, -0.418 ± 0.048 for the second.

Going from M61L to M61Y, the abundance fitness falls from -0.191 ± 0.031 to -1 ± 0.18.

First: M61H
Second: M61C
The abundance fitness of the first is lower: -0.812 ± 0.11 for the first, -0.292 ± 0.054 for the second.

Going from T51N to T51H, the abundance fitness falls from -0.082 ± 0.048 to -0.235 ± 0.048.

T51A and T51R are within error of each other in abundance fitness: -0.1 ± 0.039 for the first, -0.109 ± 0.063 for the second.

First: P46N
Second: P46H
The abundance fitness of the first is lower: -0.223 ± 0.049 for the first, -0.077 ± 0.05 for the second.

Work on P46C yielded an abundance fitness of -0.319 ± 0.079.
